Assay results as given in US20040126856A1, “Factor ixa: factor Vllla interaction and methods therefor” (priority 2004, published 2004).

Tests used:
[1] = target: T1, factor X (Homo sapiens, UniProt P00742); assay: Activation of factor X by factor IXa proteins in the presence of only Ca2+ and PL (absence of factor VIIIa); format: biochemical; conditions: 20 nM factor IXa; for kcat: 5 mM CaCl2, absence of factor VIIIa; for Km: 5 mM CaCl2, factor X 25 nM to 3 μM, absence of factor VIIIa
T1 construct: Normal plasma factor IX (IXNP) and factor X was isolated as previously described; from tissue; host or cells: normal plasma
Procedure: Activation of Factor X by Each Factor IXa Protein in the Presence of Only Ca^2+ and PL.
For these studies, each factor IX was activated with factor XIa/Ca^2+ as described above. For factor X activation studies, the concentration of factor IXa was kept at 20 nM and the buffer used was TBS/BSA (TBS with […] BSA) containing 5 mM CaCl2. The concentrations of PL used were 10, 25, 50, and 100 μM in different sets of experiments. The concentration of factor X at each PL concentration ranged from 25 nM to 3 μM. The activations were carried out for 5-15 min and the amount of factor Xa generated was measured by hydrolysis of S-2222 as described previously (Mather and Bajaj, 1999; Mather et al., 1997). The Km and kcat values were obtained using the program GraFit from Erithacus Software.

[2] = target: T2, A2 558-565 peptide (Homo sapiens, UniProt P00451); assay: Apparent Kdpeptide of binding of each factor IXa to the A2 558-565 peptide; format: biochemical; conditions: for Kd: values from FIG. 5, A2 558-565 peptide, read-out: App Kdpeptide; for ΔG°peptide: ΔG° = RTlnKd, 298 Kelvin
T2 construct: made in house; host or cells: chemical synthesis (synthetic peptide)
Procedure: Determination of the Apparent Kdpeptide of Binding of Each Factor IXa to the A2 558-565 Peptide.
The apparent Kd (termed Kdpeptide) for binding of each factor IXa to the A2 558-565 peptide was determined by its ability to inhibit the respective IXa:A2 subunit interaction as measured by reduction in the rate of factor X activation in the tenase system. The reaction mixtures for both IXaWT and IXaPCEGF1 contained 100 nM factor IXa, 30 nM A2 subunit, 250 nM factor X, and 25 μM PL in TBS/BSA, pH 7.5 with 5 mM CaCl2. The reaction mixture for IXaR333Q contained 300 nM factor IXa instead of 100 nM used for IXaWT or IXaPCEGF1; concentrations of other components were the same. The amount of factor Xa generated was determined by hydrolysis of S-2222. The IC50 values were obtained using Eq. 2. Here, y is the rate of factor Xa formation in the presence of a given concentration of the A2 558-565 peptide represented by x, and a is the maximum rate of factor Xa formation in the absence of the A2 peptide. Eq. 3 was then used to obtain the apparent Kdpeptide values. In this context, A is the concentration of IXaWT, IXaPCEGF1, or IXaR333Q, and EC50 is the apparent KdA2 for the respective IXa:A2 subunit interaction.

T1 sequence (P00742 183-488 limits assumed): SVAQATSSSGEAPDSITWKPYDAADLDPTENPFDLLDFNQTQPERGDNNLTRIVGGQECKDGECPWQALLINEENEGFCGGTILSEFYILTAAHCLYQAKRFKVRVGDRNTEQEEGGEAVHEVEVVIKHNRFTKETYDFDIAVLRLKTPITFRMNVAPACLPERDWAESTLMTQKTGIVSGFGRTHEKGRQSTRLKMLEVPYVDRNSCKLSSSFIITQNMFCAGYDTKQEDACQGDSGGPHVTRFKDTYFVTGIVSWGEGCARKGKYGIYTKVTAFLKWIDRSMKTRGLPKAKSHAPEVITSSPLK
T1 sequence (P00742 41-179 limits assumed): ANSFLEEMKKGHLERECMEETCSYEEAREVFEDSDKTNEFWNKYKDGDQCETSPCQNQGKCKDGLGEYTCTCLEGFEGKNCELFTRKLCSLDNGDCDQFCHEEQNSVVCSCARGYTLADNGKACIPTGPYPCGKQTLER

Row | Change in ΔG°peptide between the mutant and WT [2] [kcal/mol] | Fold-change in apparent Kdpeptide (mutant/WT) [2] | Kd [2] [µM] | ΔG°peptide [2] [kcal/mol] | Substance | kcat ([1]; PL 10 μM) [min⁻¹] | Km ([1]; PL 10 μM) [µM] | kcat ([1]; PL 25 μM) [min⁻¹] | Km ([1]; PL 25 μM) [µM] | kcat ([1]; PL 50 μM) [min⁻¹] | Km ([1]; PL 50 μM) [µM] | kcat ([1]; PL 100 μM) [min⁻¹] | Km ([1]; PL 100 μM) [µM]
1 | 1.62 | ~15 | 62 ± 9 | 5.74 | IXaR333Q: activated factor IX point mutant in which Arg333 is replaced by Gln | 0.012 | 0.11 | 0.018 | 0.18 | 0.030 | 0.23 | 0.040 | 0.61
2 |  |  | 4 ± 1 | 7.36 | IXaWT: activated recombinant wild-type factor IX (IXWT) | 0.010 | 0.09 | 0.012 | 0.12 | 0.024 | 0.24 | 0.038 | 0.57
